Reference: paper PMC7481392, “Identification of MltG as a Prc Protease Substrate Whose Dysregulation Contributes to the Conditional Growth Defect of Prc-Deficient Escherichia coli” (Frontiers in Microbiology, 2020)
Changes are numbered by the printed parent chain.

T1: Prc protease (wild type), C-terminally His6-tagged (E. coli, UniProt P23865 23-682, Dylight 549 NHS ester on amines)
T1 construct: Prc (Tsp), periplasmic protease of Escherichia coli, 76 kDa; encoded on pTR147 (Spiers et al., 2002); also called Tsp; Prc (WT); source: E. coli DH5α harboring pTR147, purified (Ni-NTA)
T1 sequence (looked up): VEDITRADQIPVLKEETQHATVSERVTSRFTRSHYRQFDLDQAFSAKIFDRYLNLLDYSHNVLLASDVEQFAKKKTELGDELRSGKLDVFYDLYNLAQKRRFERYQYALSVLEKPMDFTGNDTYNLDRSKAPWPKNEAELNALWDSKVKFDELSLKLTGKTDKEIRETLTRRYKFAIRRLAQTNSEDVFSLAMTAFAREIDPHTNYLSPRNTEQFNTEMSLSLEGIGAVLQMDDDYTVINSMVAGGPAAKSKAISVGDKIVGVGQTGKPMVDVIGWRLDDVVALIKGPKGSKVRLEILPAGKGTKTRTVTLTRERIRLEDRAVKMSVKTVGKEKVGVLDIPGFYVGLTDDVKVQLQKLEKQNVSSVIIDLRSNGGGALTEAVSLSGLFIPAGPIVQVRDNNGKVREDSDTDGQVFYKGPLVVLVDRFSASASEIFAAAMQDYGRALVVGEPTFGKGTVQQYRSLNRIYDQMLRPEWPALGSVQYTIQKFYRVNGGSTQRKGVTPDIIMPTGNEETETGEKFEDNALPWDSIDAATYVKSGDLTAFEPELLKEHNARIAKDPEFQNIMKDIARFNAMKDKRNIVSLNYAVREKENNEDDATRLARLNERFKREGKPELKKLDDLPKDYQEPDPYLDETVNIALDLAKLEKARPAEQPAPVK

T2: K455A-Prc, catalytically inactive Prc mutant, C-terminally His6-tagged (E. coli, UniProt P23865 23-682, K455A, Dylight 549 NHS ester on amines (array assay only))
T2 construct: Prc (Tsp), periplasmic protease of Escherichia coli, with K455A; encoded on pTR163 (Spiers et al., 2002); The same construct was used purified and labelled on the array, and unlabelled in lysate for the co-IP; source: E. coli DH5α harboring pTR163, purified (Ni-NTA); E. coli ΔmltG-BW25113 harboring pTR163, in lysate; not shown: His6, C-terminal, kept
T2 sequence (looked up): T1 sequence (looked up) with K455A

B1: HupA, N-terminally 6xHis-tagged, from the ASKA ORF library (on the proteome array) (natural protein, E. coli K12, UniProt P0ACF0 1-90, looked up)
chain: MNKTQLIDVIAEKAELSKTQAKAALESTLAAITESLKEGDAVQLVGFGTFKVNHRAERTGRNPQTGKEIKIAAANVPAFVSGKALKDAVK
notes: ORF clone of the ASKA library; source: E. coli, ASKA library clone, purified (Ni-NTA, high-throughput)
B2: RfaD, N-terminally 6xHis-tagged, from the ASKA ORF library (on the proteome array) (natural protein, E. coli K12, UniProt P67910 1-310, looked up)
chain: MIIVTGGAGFIGSNIVKALNDKGITDILVVDNLKDGTKFVNLVDLNIADYMDKEDFLIQIMAGEEFGDVEAIFHEGACSSTTEWDGKYMMDNNYQYSKELLHYCLEREIPFLYASSAATYGGRTSDFIESREYEKPLNVYGYSKFLFDEYVRQILPEANSQIVGFRYFNVYGPREGHKGSMASVAFHLNTQLNNGESPKLFEGSENFKRDFVYVGDVADVNLWFLENGVSGIFNLGTGRAESFQAVADATLAYHKKGQIEYIPFPDKLKGRYQAFTQADLTNLRAAGYDKPFKTVAEGVTEYMAWLNRDA
notes: RfaD, ADP-L-glycero-D-manno-heptose-6-epimerase, E. coli K12; ORF clone of the ASKA library; source: E. coli, ASKA library clone, purified (Ni-NTA, high-throughput)
B3: YaaW, N-terminally 6xHis-tagged, from the ASKA ORF library (on the proteome array) (natural protein, E. coli K12, UniProt P75617 1-237, looked up)
chain: MNVNYLNDSDLDFLQHCSEEQLANFARLLTHNEKGKTRLSSVLMRNELFKSMEGHPEQHRRNWQLIAGELQHFGGDSIANKLRGHGKLYRAILLDVSKRLKLKADKEMSTFEIEQQLLEQFLRNTWKKMDEEHKQEFLHAVDARVNELEELLPLLMKDKLLAKGVSHLLSSQLTRILRTHAAMSVLGHGLLRGAGLGGPVGAALNGVKAVSGSAYRVTIPAVLQIACLRRMVSATQV
notes: YaaW, function E. coli K12; ORF clone of the ASKA library; source: E. coli, ASKA library clone, purified (Ni-NTA, high-throughput)
B4: YdhS, N-terminally 6xHis-tagged, from the ASKA ORF library (on the proteome array) (natural protein, E. coli K12, UniProt P77148 1-534, looked up)
chain: MKKIAIVGAGPTGIYTLFSLLQQQTPLSISIFEQADEAGVGMPYSDEENSKMMLANIASIEIPPIYCTYLEWLQKQEDSHLQRYGVKKETLHDRQFLPRILLGEYFRDQFLRLVDQARQQKFAVAVYESCQVTDLQITNAGVMLATNQDLPSETFDLAVIATGHVWPDEEEATRTYFPSPWSGLMEAKVDACNVGIMGTSLSGLDAAMAVAIQHGSFIEDDKQHVVFHRDNASEKLNITLLSRTGILPEADFYCPIPYEPLHIVTDQALNAEIQKGEEGLLDRVFRLIVEEIKFADPDWSQRIALESLNVDSFAQAWFAERKQRDPFDWAEKNLQEVERNKREKHTVPWRYVILRLHEAVQEIVPHLNEHDHKRFSKGLARVFIDNYAAIPSESIRRLLALREAGIIHILALGEDYKMEINESRTVLKTEDNSYSFDVFIDARGQRPLKVKDIPFPGLREQLQKTGDEIPDVGEDYTLQQPEDIRGRVAFGALPWLMHDQPFVQGLTACAEIGEAMARAVVKPASRARRRLSFD
notes: YdhS, function E. coli K12; ORF clone of the ASKA library; source: E. coli, ASKA library clone, purified (Ni-NTA, high-throughput)
B5: YfaU, N-terminally 6xHis-tagged, from the ASKA ORF library (on the proteome array) (natural protein, E. coli K12, UniProt P76469 1-267, looked up)
chain: MNALLSNPFKERLRKGEVQIGLWLSSTTAYMAEIAATSGYDWLLIDGEHAPNTIQDLYHQLQAVAPYASQPVIRPVEGSKPLIKQVLDIGAQTLLIPMVDTAEQARQVVSATRYPPYGERGVGASVARAARWGRIENYMAQVNDSLCLLVQVESKTALDNLDEILDVEGIDGVFIGPADLSASLGYPDNAGHPEVQRIIETSIRRIRAAGKAAGFLAVAPDMAQQCLAWGANFVAVGVDTMLYSDALDQRLAMFKSGKNGPRIKGSY
notes: YfaU (RhmA), 2-keto-3-deoxy-L-rhamnonate aldolase, E. coli K12; ORF clone of the ASKA library; also called RhmA; source: E. coli, ASKA library clone, purified (Ni-NTA, high-throughput)
B6: YidA, N-terminally 6xHis-tagged, from the ASKA ORF library (on the proteome array) (natural protein, E. coli K12, UniProt P0A8Y5 1-270, looked up)
chain: MAIKLIAIDMDGTLLLPDHTISPAVKNAIAAARARGVNVVLTTGRPYAGVHNYLKELHMEQPGDYCITYNGALVQKAADGSTVAQTALSYDDYRFLEKLSREVGSHFHALDRTTLYTANRDISYYTVHESFVATIPLVFCEAEKMDPNTQFLKVMMIDEPAILDQAIARIPQEVKEKYTVLKSAPYFLEILDKRVNKGTGVKSLADVLGIKPEEIMAIGDQENDIAMIEYAGVGVAMDNAIPSVKEVANFVTKSNLEDGVAFAIEKYVLN
notes: YidA, sugar phosphatase, E. coli K12; ORF clone of the ASKA library; source: E. coli, ASKA library clone, purified (Ni-NTA, high-throughput)
B7: TyrA, N-terminally 6xHis-tagged, from the ASKA ORF library (on the proteome array) (natural protein)
chain: not shown
notes: TyrA, fused chorismate mutase/prephenate dehydrogenase, E. coli K12; ORF clone of the ASKA library; source: E. coli, ASKA library clone, purified (Ni-NTA, high-throughput)
B8: YacF, N-terminally 6xHis-tagged, from the ASKA ORF library (on the proteome array) (natural protein, E. coli K12, UniProt P36680 1-247, looked up)
chain: MQTQVLFEHPLNEKMRTWLRIEFLIQQLTVNLPIVDHAGALHFFRNVSELLDVFERGEVRTELLKELDRQQRKLQTWIGVPGVDQSRIEALIQQLKAAGSVLISAPRIGQFLREDRLIALVRQRLSIPGGCCSFDLPTLHIWLHLPQAQRDSQVETWIASLNPLTQALTMVLDLIRQSAPFRKQTSLNGFYQDNGGDADLLRLNLSLDSQLYPQISGHKSRFAIRFMPLDTENGQVPERLDFELACC
notes: YacF (ZapD), cell division protein, E. coli K12; ORF clone of the ASKA library; also called ZapD; source: E. coli, ASKA library clone, purified (Ni-NTA, high-throughput)
B9: YegV, N-terminally 6xHis-tagged, from the ASKA ORF library (on the proteome array) (natural protein, E. coli K12, UniProt P76419 1-321, looked up)
chain: MSGARLHTLLPELTTRQSVMVVGAAVIDVIADAYALPWRGCDIELKQQSVNVGGCALNIAVALKRLGIEAGNALPLGQGVWAEMIRNRMAKEGLISLIDNAEGDNGWCLALVEPDGERTFMSFSGVENQWNRQWLARLTVAPGSLLYFSGYQLASPCGELLVEWLEELQDVTPFIDFGPRIGDIPDALLARIMACRPLVSLNRQEAEIAAERFALSAEITTLGKQWQEKFAAPLIVRLDKEGAWYFSNDASGCIPAFPTQVVDTIGAGDSHAGGVLAGLASGLPLADAVLLGNAVASWVVGHRGGDCAPTREELLLAHKNV
notes: YegV, putative sugar kinase, E. coli K12; ORF clone of the ASKA library; source: E. coli, ASKA library clone, purified (Ni-NTA, high-throughput)

target: T1, Prc protease (wild type), C-terminally …; test: peptide or protein array; E. coli K12 proteome array (N-terminally His6-tagged ASKA proteins spotted in duplicate on slides), blocked with 1% BSA in TBS, probed with 1 μM Dylight 549-labelled Prc variant in PBS pH 7.4 with 1% BSA, RT, 1 h; washed with TBS-T; triplicate; conditions: both partners purified

Binder	binding result
B1	binds
B2	binds
B3	binds
B4	binds
B5	binds
B6	binds

target: T2, K455A-Prc, catalytically inactive Prc …; test: as above; conditions: both partners purified

Binder	binding result
B7	binds
B3	binds
B8	binds
B9	binds
B5	binds
B6	binds
